Values joined by “and” are separate entries in the source; they are usually repeats but may differ in a detail not shown here. Identical values can stand only once.

The series concerns the molecule itself. The series is described as follows: cryo-EM structure.

B1: Mycobacterium tuberculosis encapsulin shell protein (Enctb) (natural protein)
chain: MNNLYRDLAPVTEAAWAEIELEAARTFKRHIAGRRVVDVSDPGGPVTAAVSTGRLIDVKAPTNGVIAHLRASKPLVRLRVPFTLSRNEIDDVERGSKDSDWEPVKEAAKKLAFVEDRTIFEGYSAASIEGIRSASSNPALTLPEDPREIPDVISQALSELRLAGVDGPYSVLLSADVYTKVSETSDHGYPIREHLNRLVDGDIIWAPAIDGAFVLTTRGGDFDLQLGTDVAIGYASHDTDTVRLYLQETLTFLCYTAEASVALSH
notes: also called Rv0798c; copies: 60
As a reminder, the stoichiometry N is the number of molecules, sites or subunits per partner or assembly. Regarding B1, the “stoichiometry N” value was 60 and 48 and 52 and 54.

The record behind these values is paper PMC11830004, “In situ and in vitro cryo-EM reveal structures of mycobacterial encapsulin assembly intermediates” (Communications Biology, 2025).
